Our source for the Kd values is the Immune Epitope Database (IEDB).

Some targets named below: HLA-A*02:01; HLA-A*02:02; HLA-A*02:03; HLA-A*02:06; HLA-A*68:02.
Common to all, as to assay: IEDB peptide-MHC binding, purified MHC/competitive/radioactivity; filed as Kd, often an IC50 or EC50 that approximates it; ≥ and ≤ were set here for values at or beyond the usual limits of such assays
Where [1] appears, read: source organism: Pichinde virus strain Munchique.
Where [2] appears, read: source organism: Guanarito virus strain INH-95551.
Setting [3] is: source organism: Lassa virus Josiah.
The mark [4] stands for this setting: source organism: Whitewater Arroyo virus strain AV9310135.

Where only a bound is given, the exact number is not on record here.

YTITVFLHL: the Kd in the experiment with HLA-A*02:01 (setting [1]) was 10 nM; in the experiment with HLA-A*02:02 (setting [1]) it was 128 nM; with HLA-A*02:03 (setting [1]) it was 14800 nM; in the experiment with HLA-A*02:06 (setting [1]), 7 nM; in the experiment with HLA-A*68:02 (setting [1]) it was 5 nM.

For GTTSLFLHL, the equilibrium dissociation constant (Kd) in the experiment with HLA-A*02:01 (setting [2]) was determined as 49 nM; in the experiment with HLA-A*02:02 (setting [2]), 57 nM; with HLA-A*02:03 (setting [2]) it was 750 nM; with HLA-A*02:06 (setting [2]) it was 5 nM; in the experiment with HLA-A*68:02 (setting [2]), 5 nM.

Regarding YLISIFLHL, the Kd with HLA-A*02:02 (setting [3]) turned out to be 173 nM; in the experiment with HLA-A*02:03 (setting [3]) it was 11 nM; in the experiment with HLA-A*02:06 (setting [3]), 10 nM.

Regarding YVSSIFLHL, the Kd was no more than 1 nM in the experiment with HLA-A*02:02 (setting [4]), 10 nM in the experiment with HLA-A*02:03 (setting [4]), 15 nM with HLA-A*02:06 (setting [4]) and no more than 1 nM in the experiment with HLA-A*68:02 (setting [4]).

By Kd is commonly meant the equilibrium constant for the complex coming apart.
